Data on 1 substance can be found in publication PMC10174300.

The target of this assay is T cell immunoglobulin-3 (TIM-3) (human (endogenous in CD3+ T cells from PBMCs)) (UniProt Q8TDQ0).

Sequence of Galectin-9 (O00182 whole entry): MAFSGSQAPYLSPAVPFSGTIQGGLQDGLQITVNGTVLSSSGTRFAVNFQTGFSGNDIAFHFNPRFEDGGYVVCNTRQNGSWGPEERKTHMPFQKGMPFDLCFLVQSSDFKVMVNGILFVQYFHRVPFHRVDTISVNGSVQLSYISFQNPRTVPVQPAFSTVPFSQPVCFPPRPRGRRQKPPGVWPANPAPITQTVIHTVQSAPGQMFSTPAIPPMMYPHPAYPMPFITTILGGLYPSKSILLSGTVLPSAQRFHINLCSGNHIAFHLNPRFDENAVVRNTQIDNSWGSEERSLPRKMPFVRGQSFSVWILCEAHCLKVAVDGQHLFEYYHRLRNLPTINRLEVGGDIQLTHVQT

“Galectin-9 (from UniProt O00182 1-355) (ligand)” gave a T cell proliferation (DELFIA, TRF intensity) of activated CD3+ T cells treated with Galectin-9 at 55.6 nM, against activated T cells without Galectin-9 of 50%.
